Patent US20220098328A1, “ANTIBODIES TO M(H)DM2/4 AND THEIR USE IN DIAGNOSING AND TREATING CANCER” (NomoCan Pharmaceuticals LLC, priority 2017, published 2022)
Changes are numbered by the printed parent chain.

Tests used:
[1] = test system: mouse pancreatic cancer Panc-2 cells; experiment: Panc-2 syngeneic mouse model of pancreatic cancer; assay type: in vivo
Description: Methodology used (Syngeneic Mouse Models of lung, colon and pancreatic cancer): To investigate the anti-tumor effects of HDM2-specific antibodies on lung, colon and pancreatic tumors in vivo, three well-known syngeneic mouse models of lung, colon and pancreatic cancer were used (Sharma et al., 1999, J. Immunol. 163 (9):5020-5028; McIntyre, 2015, Bioassays 37(8):909-920; Li, et al., 2015, Sci. Rep. 5:7856). Subcutaneous tumors were prepared by implanting either mouse Lewis Lung cancer LL/2 cells (2.5×10^5 cells/mouse), mouse colon cancer MC-38 cells (5×10^5 cells/mouse) or mouse pancreatic cancer Panc-2 cells (2×10^6 cells/mouse) in the right flanks of 8-week-old female C57BL/6 mice (n=6-7). The mice were returned to their respective cages after tumor implantation. From day 7 after tumor implantation, the tumor volumes were measured 2 times/week with a digital caliper. In the case of MC-38 and Panc-2 study, treatment started when the tumors reached an average of 70-80 mm^3. In the case of LL/2 study, tumor cell inoculation and treatment were initiated simultaneously. Mice were micro-chipped and registered following tumor implantation. Tumor volume measurements and body weights were recorded and mice were randomized into groups that received: A) mAb NMC-103 at 0.4 mg/kg (3 times a week for 3 weeks), 2 mg/kg (2 times a week for 3 weeks), or 4 mg/kg (2 times a week for 3 weeks); B) NMC-204 at 0.4 mg/kg (3 times a week for 3 weeks); C) isotype control mouse IgG1 (Abcam, Cat. No. ab18447) or IgG3 (Abcam, Cat. No. ab18392) at 0.4 mg/kg (3 times a week for 3 weeks) or 4 mg/kg (2 times a week for 3 weeks); D) Gemcitabine (25 mg/kg) and nab-paclitaxel (5 mg/kg) 2 times a week for 3 weeks; or E) a combination of gemcitabine (25 mg/kg), nab-paclitaxel (5 mg/kg) and mAb NMC-103 (2 mg/kg; 2 times a week for 3 weeks) or (10 mg/kg; 2 times a week for 2 weeks). All tumors were injected subcutaneously and all treatments were performed by intraperitoneal injection. Any mouse displaying prolonged adverse clinical signs, or with body weight loss exceeding 15% relative to body weight at day 0, was euthanized. Tumor measurements from post-treatment with HDM2-specific antibodies versus isotype control mouse antibodies versus standard of care treatment (gemcitabine and nab-paclitaxel) were made, and results are presented in FIGS. 16-19.
The anti-tumor efficacy of NMC-103 and of its combination with pancreatic cancer standard of care treatment Gemcitabine (G) and nab-Paclitaxel (nP) was further evaluated in vivo utilizing the Panc-2 syngeneic mouse model of pancreatic cancer discussed above. In this Panc-2 study, treatment started after Panc-2 cell inoculation and when the tumors reached 80-100 mm^3, with mAb NMC-103 administered at 10 mg/kg, two times a week in a larger number of mice (n=8/group) than that used for the study of FIG. 19.
Evaluation of anti-tumor effects of antibody OP145 on pancreatic tumor growth in vivo: Subcutaneous tumors were prepared by implanting Panc02 cells (2×10^6 per mouse) in the right flanks of female 8-week-old C57BL/6 mice. The mice were returned to their respective cages after tumor implantation. From day 7 after tumor implantation, the tumor volumes were measured 2 times/week with a digital caliper. Treatment started when the tumors reached an average of 200 mm^3 (see FIG. 26, day 14). Mice were micro-chipped and registered following tumor implantation. Tumor volume measurements and body weights were recorded and mice were randomized into two groups that received either OP145 antibody (by intra-tumoral injection of 0.1 mg/kg of mouse monoclonal antibody OP145, 3 times per week) or PBS. Three mice were treated with OP145, and five mice were treated with PBS. Any mouse displaying prolonged adverse clinical signs, or with body weight loss exceeding 15% from Day 0 body weight, was euthanized. Tumor measurements from the first 10 days post treatment with OP145 antibody versus PBS were made, and results are represented in FIG. 26. […]

[2] = test system: OVCAR-3 cells; experiment: Flow cytometry on live (7AAD negative) cells; assay type: cell-based, human
Description: Cells that had been allowed to grow to about 80% confluency in 75 cm^2 tissue culture flasks were released with either EDTA (10 mmols; pH 7.2; 5 min, 37° C.) or Trypsin (Gibco TrypLE Express), washed several times with ice-cold PBS, and blocked for 20 minutes on ice with 5% human serum albumin in PBS (intact, non-permeabilized cells). After establishing viability, the cell number was adjusted to 10^6 cells/ml and kept in ice-cold PBS until staining. Cells were then incubated with primary antibodies NMC-H103 (VH4/VK3) or NMC-C303 (1 μg/ml) for 30 minutes on ice. Following primary antibody incubation, cells were washed 3 times with ice-cold PBS, followed by incubation with goat anti-human PE labeled secondary antibody (Life technologies H10104) on ice for 20 minutes. Cells were then washed 3 times with PBS and incubated with 7AAD (5 μl/[…] of buffer) before flow cytometry analysis using Fortessa 5.

[3] = test system: mouse Lewis Lung cancer LL/2 cells; experiment: LL/2 syngeneic mouse model of lung cancer; assay type: in vivo; conditions: LL/2 s.c. in C57BL/6 mice; 0.4 mg/kg i.p. 3 times a week for 3 weeks, started with tumor cell inoculation; by day 21
Description: Methodology used (Syngeneic Mouse Models of lung, colon and pancreatic cancer): To investigate the anti-tumor effects of HDM2-specific antibodies on lung, colon and pancreatic tumors in vivo, three well-known syngeneic mouse models of lung, colon and pancreatic cancer were used (Sharma et al., 1999, J. Immunol. 163 (9):5020-5028; McIntyre, 2015, Bioassays 37(8):909-920; Li, et al., 2015, Sci. Rep. 5:7856). Subcutaneous tumors were prepared by implanting either mouse Lewis Lung cancer LL/2 cells (2.5×10^5 cells/mouse), mouse colon cancer MC-38 cells (5×10^5 cells/mouse) or mouse pancreatic cancer Panc-2 cells (2×10^6 cells/mouse) in the right flanks of 8-week-old female C57BL/6 mice (n=6-7). The mice were returned to their respective cages after tumor implantation. From day 7 after tumor implantation, the tumor volumes were measured 2 times/week with a digital caliper. In the case of MC-38 and Panc-2 study, treatment started when the tumors reached an average of 70-80 mm^3. In the case of LL/2 study, tumor cell inoculation and treatment were initiated simultaneously. Mice were micro-chipped and registered following tumor implantation. […]

B1: NMC-103: mouse monoclonal antibody of the IgG1 isotype that binds to NMC-P1 (SEQ ID NO:1); VH SEQ ID NO:36, VL SEQ ID NO:37 (antibody, V domains shown)
VH: EVQLQESGGGLVQPGGSLRLSCTTSGFTFTHYYMSWVRQPPGKALEWLGFIRNKAKGYTAEYSASVKGRFTISRDNSQSILYLQMNTLRPEDSATYYCARDIGDNWGQGTLVTVSS
VL: DIVMTQAAFSNPVTLGTSASISCRSSKNLLHSNGITYLYWYLQRPGQSPQLLISRVSNLASGVPNRFSGSESGTDFTLRISRVEAEDVGVYFCAQLLELPYTFGGGTKLEIK
modifications: mAb NMC-103 Heavy Chain Variable Region; mAb NMC-103 Light Chain Variable Region
- average tumor volume ([1]; Panc-2, n=6, start at ~70 mm^3, i.p. 2 times a week for 3 weeks (6th dose day 19), then 2 weeks off, antibody 2 mg/kg, Gemcitabine 25 mg/kg, nab-Paclitaxel 5 mg/kg, by day 35): 1523 mm^3
- average tumor size / measurement ([1]; Panc-02, start at 80-100 mm^3, n=8/group, i.p. 2 times a week for 4 weeks, NMC-103 10 mg/kg, Gemcitabine 25 mg/kg, nab-Paclitaxel 5 mg/kg, by day 34, in NMC-103 groups attributed to scar and inflammation): 230 mm^3
- tumor size 6 days post single i.p. injection ([1]; Panc-2, mice pre-treated with Gemcitabine 25 mg/kg + nab-Paclitaxel 5 mg/kg for 19 days (~450 mm^3), single dose 10 mg/kg, from 438 mm^3): 233 mm^3
- tumor growth during 4 further weeks without drug treatment ([1]; Panc-02 study of FIG. 27, up to 62 days since start): no sign of tumor growth beyond the initial scar size
- Kaplan Meier survival analysis ([1]; conditions of FIG. 27, compared to chemotherapy alone or control antibody): significant survival benefit
- tumor 10 days after re-challenge with Panc-2 cells ([1]; previously treated mice re-challenged at day 62, 2×10^6 cells s.c. left dorsal flank, no further drug): no tumor was observed

B2: NMC-H103 (VH4/VK3): humanized NMC-103 variant, human IgG1, VH4 (SEQ ID NO:299) and VK3 (SEQ ID NO:297) (antibody, V domains shown)
VH: B1 VH with Q5V, G16P, P40A, A44G, Q78K, I80T, T87S, P90A, S93T, T95V
VL: B1 VL with A7T, A8P, F9L, N11S, T17Q, S18P, R44K, N65D, R79K, L109V
modifications: human IgG1 constant regions lacking entries; mAb NMC-H103.VH4Heavy Chain Variable Region; mAb NMC-H103.VK3Light Chain Variable Region
- binding to live cells briefly treated with trypsin, flow cytometry ([2]; 7AAD negative): reduced
- binding to live (7AAD negative) cells, flow cytometry ([2]; antibody 1 μg/ml): binding

B3: NMC-204: mouse monoclonal antibody of the IgG3 isotype that binds to NMC-P2 (SEQ ID NO:2); VH SEQ ID NO:38, VL SEQ ID NO:39 (antibody, V domains shown)
VH: EVQLQESGSVLVRPGASVKLSCKASGDTLSGSWMHWAMQRPGQGLEWIGEIHLNRGTTNYNEKFKGKATVTVDTSSSTAYVDLSSLTSEDSAVYYCARSPGFAYWGQGTLVTVSA
VL: GIVMTQAAPSVPVTPGESVSISCRSSKSLLHSNGNSYLYWFLQRPGQSPQLLIYRMSNLASGVPDRFSGSGSGTAFTLRITRVEAEDVGVYYCMQHLEYPFTFGSGTKLEIK
modifications: mAb NMC-204 Heavy Chain Variable Region; mAb NMC-204 Light Chain Variable Region
- tumor volume [3]: 1446 mm^3
